Kd data for 2 substances are collected here from article PMC3928670.

For assay [1], the target named is McbB/D (Escherichia coli) (UniProt P23184). The conditions noted are these: cited from earlier work.
Assay [2] has as its target BcerB, TOMM dehydrogenase (B-protein) from Bacillus cereus 172560W (Bacillus cereus 172560W). The experiment in a line: fluorescence polarisation.

Sequence of UniProt P23184 (P23184 whole entry, chain 1 of 2): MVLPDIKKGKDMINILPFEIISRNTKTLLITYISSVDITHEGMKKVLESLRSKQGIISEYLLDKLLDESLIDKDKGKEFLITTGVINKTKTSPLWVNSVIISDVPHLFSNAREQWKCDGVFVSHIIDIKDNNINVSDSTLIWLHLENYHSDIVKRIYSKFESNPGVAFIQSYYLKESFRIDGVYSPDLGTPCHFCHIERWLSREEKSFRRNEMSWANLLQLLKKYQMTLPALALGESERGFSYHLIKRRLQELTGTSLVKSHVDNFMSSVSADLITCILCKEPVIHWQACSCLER
Sequence of UniProt P23184 (P23186 whole entry, chain 2 of 2, further chain): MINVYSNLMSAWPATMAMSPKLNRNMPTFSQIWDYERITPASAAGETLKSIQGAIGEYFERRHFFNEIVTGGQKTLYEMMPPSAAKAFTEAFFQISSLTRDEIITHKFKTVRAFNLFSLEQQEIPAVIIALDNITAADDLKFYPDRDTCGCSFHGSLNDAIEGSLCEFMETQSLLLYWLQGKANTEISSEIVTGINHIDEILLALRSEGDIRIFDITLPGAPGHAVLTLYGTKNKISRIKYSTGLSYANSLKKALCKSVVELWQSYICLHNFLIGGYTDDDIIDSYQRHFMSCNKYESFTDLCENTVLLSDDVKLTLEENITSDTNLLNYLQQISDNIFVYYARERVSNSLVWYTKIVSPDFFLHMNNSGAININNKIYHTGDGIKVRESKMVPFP

Take McbC (from UniProt P23185): in assay [1], the Kd (in general, the constant that tells how readily two partners part at equilibrium) was 1800 nM.

Turning to “Balh cyclodehydratase (BalhC/D) from Bacillus sp. Al Hakam (complex)”, the Kd in assay [2] stood at 1700 nM.
